Laboratory results taken from patent US20230212285A1 (published 2023).

B1: E-C7 (antibody, human IgG1, V domains shown)
VH: QVQLVQSGAEVKKPGASVKVSCKASGYTFTDYYMNWVRQAPGQGLEWMGRIYPGSGNTYYAQKFQGRVTMTRDTSTSTVYMELSSLRSEDTAVYYCARGVYYYDYWGQGTLVTVSS
VL: DIQMTQSPSSLSASVGDRVTITCRASQGIRTNLAWFQQKPGKAPKSLIYSASSLQSGVPSRFSGSGSGTDFTLTISSLQPEDFATYYCQQYNSYPRTFGGGTKVEIK
notes: human IgG1; also called C-KIT-E-C7
B2: F-C5 (antibody, human IgG1, V domains shown)
VH: QVQLVQSGAEVKKPGASVKVSCKASGYTFTDYYMNWVRQAPGQGLEWMGRIYPGSGNTYYAQKFQGRVTMTRDTSTSTVYMELSSLRSEDTAVYYCARGVYYFDEWGQGTLVTVSS
VL: DIQMTQSPSSLSASVGDRVTITCRASQGVRTNLAWFQQKPGKAPKSLIYAASSRQSGVPSRFSGSGSGTDFTLTISSLQPEDFATYYCQQYNSYPRTFGGGTKVEIK
notes: human IgG1; also called C-KIT-F-C5
B3: C-A7 (antibody, human IgG1, V domains shown)
VH: QVQLVQSGAEVKKPGASVKVSCKASGYTFTDYYMNWVRQAPGQGLEWIGRIYPGSGNTYYAQKFQGRVTMTRDTSTSTVYMELSSLRSEDTAVYYCARGVYYFDSWGQGTLVTVSS
VL: DIQMTQSPSSLSASVGDRVTITCRASQGVRNNVAWFQQKPGKAPKSLIYYASSLQSGVPSRFSGSGSGTDFTLTISSLQPEDFATYYCQQYNSYPRTFGGGTKVEIK
notes: graft frameworks; substitutions derived; human IgG1; also called C-KIT-C-A7
B4: MH5 IgG1 (antibody, V domains shown)
VH: QVQLVQSGAEVKKPGASVKVSCKASGYTFTDYYMNWVRQAPGQGLEWMGRIYPGSGNTYYAQKFQGRVTMTRDTSTSTVYMELSSLRSEDTAVYYCARGVYYYDYWGQGTLVTVSS
VL: DIQMTQSPSSLSASVGDRVTITCRASQGIRTNLAWFQQKPGKAPKSLIYSASSLQSGVPSRFSGSGSGTDFTLTISSLQPEDFATYYCQQYANYPRTFGGGTKVEIK
notes: human IgG1; also called C-KIT-MH5
B5: F-F2 (antibody, human IgG1, V domains shown)
VH: QVQLVQSGAEVKKPGASVKVSCKASGYTFTDYYMNWVRQAPGQGLEWMGRIYPGSGNTYYAQKFQGRVTMTRDTSTSTVYMELSSLRSEDTAVYYCARGVYYQDYWGQGTLVTVSS
VL: DIQMTQSPSSLSASVGDRVTITCRASQGVRTNVAWFQQKPGKAPKSLIYAASSRQSGVPSRFSGSGSGTDFTLTISSLQPEDFATYYCQQYNSYPRTFGGGTKVEIK
notes: graft frameworks; substitutions derived; human IgG1; also called C-KIT-F-F2
B6: D-A10 (antibody, human IgG1, V domains shown)
VH: QVQLVQSGAEVKKPGASVKVSCKASGYTFTDYYMNWVRQAPGQGLEWMGRIYPGSGNTYYAQKFQGRVTMTRDTSTSTVYMELSSLRSEDTAVYYCARGVYYFDTWGQGTLVTVSS
VL: DIQMTQSPSSLSASVGDRVTITCRASQGVRTNLAWFQQKPGKAPKSLIYAASSRQSGVPSRFSGSGSGTDFTLTISSLQPEDFATYYCQQYNSYPRTFGGGTKVEIK
notes: graft frameworks; substitutions derived; human IgG1; also called C-KIT-D-A10
B7: MH11 (antibody, human IgG1, V domains shown)
VH: QVQLVQSGAEVKKPGASVKVSCKASGYTFTDYYMNWVRQAPGQGLEWMGRIYPGSGNTYYAQKFQGRVTMTRDTSTSTVYMELSSLRSEDTAVYYCARGVYYYDYWGQGTLVTVSS
VL: DIQMTQSPSSLSASVGDRVTITCRASQGIRTNLAWFQQKPGKAPKSLIYAASSLQSGVPSRFSGSGSGTDFTLTISSLQPEDFATYYCQQYNAYPRTFGGGTKVEIK
notes: graft frameworks; substitutions derived; human IgG1; also called C-KIT-MH11
B8: C-B12 (antibody, human IgG1, V domains shown)
VH: QVQLVQSGAEVKKPGASVKVSCKASGYTFTDYYMNWVRQAPGQGLEWMGRIYPGSGNTYYAQKFQGRVTMTRDTSTSTVYMELSSLRSEDTAVYYCARGVYEFDYWGQGTLVTVSS
VL: DIQMTQSPSSLSASVGDRVTITCRASQGVRNNLAWFQQKPGKAPKSLIYAASYRQSGVPSRFSGSGSGTDFTLTISSLQPEDFATYYCQQYNSYPRTFGGGTKVEIK
notes: graft frameworks; substitutions derived; human IgG1; also called C-KIT-C-B12
B9: E-E10 (antibody, human IgG1, V domains shown)
VH: QVQLVQSGAEVKKPGASVKVSCKASGYTFTDYYMNWVRQAPGQGLEWMGRIYPGSGNTYYAQKFQGRVTMTRDTSTSTVYMELSSLRSEDTAVYYCARGVWYFDYWGQGTLVTVSS
VL: DIQMTQSPSSLSASVGDRVTITCRASQGVRTNVAWFQQKPGKAPKSLIYSASSLQSGVPSRFSGSGSGTDFTLTISSLQPEDFATYYCQQYNSYPRTFGGGTKVEIK
notes: graft frameworks; substitutions derived; human IgG1; also called C-KIT-E-E10
B10: MH5.22 (antibody, human IgG1, V domains shown)
VH: QVQLVQSGAEVKKPGASVKVSCKASGYTFTDFYMNWVRQAPGQGLEWMGRIYPASGNTYYAQKFQGRVTMTRDTSTSTVYMELSSLRSEDTAVYYCARGVWYYDYWGQGTLVTVSS
VL: DIQMTQSPSSLSASVGDRVTITCRASQGIRTNLAWFQQKPGKAPKSLIYAASSLQSGVPSRFSGSGSGTDFTLTISSLQPEDFATYYCQQYANYPRTFGGGTKVEIK
notes: graft frameworks; substitutions derived; human IgG1; also called C-KIT-MH5.22
B11: MH1 IgG1 (antibody, V domains shown)
VH: QVQLVQSGAEVKKPGASVKVSCKASGYTFTDYYMNWVRQAPGQGLEWMGRIYPGSGNTYYAQKFQGRVTMTRDTSTSTVYMELSSLRSEDTAVYYCARGVYYYDYWGQGTLVTVSS
VL: DIQMTQSPSSLSASVGDRVTITCRASQGIRTNLAWFQQKPGKAPKSLIYAASSLQSGVPSRFSGSGSGTDFTLTISSLQPEDFATYYCQQYNSYPRTFGGGTKVEIK
notes: human IgG1; also called IgG1-MH1; C-KIT-MH1
B12: E-C2 (antibody, human IgG1, V domains shown)
VH: QVQLVQSGAEVKKPGASVKVSCKASGYTFTDYYMNWVRQAPGQGLEWMGRIYPGSGNTYYAQKFQGRVTMTRDTSTSTVYMELSSLRSEDTAVYYCARGVYYLDYWGQGTLVTVSS
VL: DIQMTQSPSSLSASVGDRVTITCRASQGIRTNVAWLQQKPGKAPKSLIYSASYRQSGVPSRFSGSGSGTDFTLTISSLQPEDFATYYCQQYNSYPRTFGGGTKVEIK
notes: human IgG1; also called C-KIT-E-C2
B13: MH5.34 (antibody, human IgG1, V domains shown)
VH: QVQLVQSGAEVKKPGASVKVSCKASGYTFTNYYMNWVRQAPGQGLEWMGRIYPASGNTYYAQKFQGRVTMTRDTSTSTVYMELSSLRSEDTAVYYCARGVWYFDSWGQGTLVTVSS
VL: DIQMTQSPSSLSASVGDRVTITCRASQGIRTNLAWFQQKPGKAPKSLIYAASSLQSGVPSRFSGSGSGTDFTLTISSLQPEDFATYYCQQYANYPRTFGGGTKVEIK
notes: graft frameworks; substitutions derived; human IgG1; also called C-KIT-MH5.34
B14: MH5.1 (antibody, human IgG1, V domains shown)
VH: QVQLVQSGAEVKKPGASVKVSCKASGYTFTNYYMNWVRQAPGQGLEWMGRIYPGTGNTYYAQKFQGRVTMTRDTSTSTVYMELSSLRSEDTAVYYCARGVWYYDYWGQGTLVTVSS
VL: DIQMTQSPSSLSASVGDRVTITCRASQGIRTNLAWFQQKPGKAPKSLIYAASSLQSGVPSRFSGSGSGTDFTLTISSLQPEDFATYYCQQYANYPRTFGGGTKVEIK
notes: graft frameworks; substitutions derived; human IgG1; also called C-KIT-MH5.1
B15: MH5.35 (antibody, human IgG1, V domains shown)
VH: QVQLVQSGAEVKKPGASVKVSCKASGYTFTNYYMNWVRQAPGQGLEWMGRIYPASGNTYYAQKFQGRVTMTRDTSTSTVYMELSSLRSEDTAVYYCARGVWYFDTWGQGTLVTVSS
VL: DIQMTQSPSSLSASVGDRVTITCRASQGIRTNLAWFQQKPGKAPKSLIYAASSLQSGVPSRFSGSGSGTDFTLTISSLQPEDFATYYCQQYANYPRTFGGGTKVEIK
notes: graft frameworks; substitutions derived; human IgG1; also called C-KIT-MH5.35
B16: MH5.24 (antibody, human IgG1, V domains shown)
VH: QVQLVQSGAEVKKPGASVKVSCKASGYTFTDFYMNWVRQAPGQGLEWMGRIYPASGNTYYAQKFQGRVTMTRDTSTSTVYMELSSLRSEDTAVYYCARGVWYFDTWGQGTLVTVSS
VL: DIQMTQSPSSLSASVGDRVTITCRASQGIRTNLAWFQQKPGKAPKSLIYAASSLQSGVPSRFSGSGSGTDFTLTISSLQPEDFATYYCQQYANYPRTFGGGTKVEIK
notes: graft frameworks; substitutions derived; human IgG1; also called C-KIT-MH5.24
B17: MH5.23 (antibody, human IgG1, V domains shown)
VH: QVQLVQSGAEVKKPGASVKVSCKASGYTFTDFYMNWVRQAPGQGLEWMGRIYPASGNTYYAQKFQGRVTMTRDTSTSTVYMELSSLRSEDTAVYYCARGVWYFDSWGQGTLVTVSS
VL: DIQMTQSPSSLSASVGDRVTITCRASQGIRTNLAWFQQKPGKAPKSLIYAASSLQSGVPSRFSGSGSGTDFTLTISSLQPEDFATYYCQQYANYPRTFGGGTKVEIK
notes: graft frameworks; substitutions derived; human IgG1; also called C-KIT-MH5.23
B18: MH5.2 (antibody, human IgG1, V domains shown)
VH: QVQLVQSGAEVKKPGASVKVSCKASGYTFTDFYMNWVRQAPGQGLEWMGRIYPGTGNTYYAQKFQGRVTMTRDTSTSTVYMELSSLRSEDTAVYYCARGVWYYDYWGQGTLVTVSS
VL: DIQMTQSPSSLSASVGDRVTITCRASQGIRTNLAWFQQKPGKAPKSLIYAASSLQSGVPSRFSGSGSGTDFTLTISSLQPEDFATYYCQQYANYPRTFGGGTKVEIK
notes: graft frameworks; substitutions derived; human IgG1; also called C-KIT-MH5.2
B19: MH1 IgG1-3M (antibody, V domains shown)
VH: QVQLVQSGAEVKKPGASVKVSCKASGYTFTDYYMNWVRQAPGQGLEWMGRIYPGSGNTYYAQKFQGRVTMTRDTSTSTVYMELSSLRSEDTAVYYCARGVYYYDYWGQGTLVTVSS
VL: DIQMTQSPSSLSASVGDRVTITCRASQGIRTNLAWFQQKPGKAPKSLIYAASSLQSGVPSRFSGSGSGTDFTLTISSLQPEDFATYYCQQYNSYPRTFGGGTKVEIK
B20: MH5-DI IgG1-3M (antibody, V domains shown)
VH: QVQLVQSGAEVKKPGASVKVSCKASGYTFTDYYMNWVRQAPGQGLEWMGRIYPGSGNTYYAQKFQGRVTMTRDTSTSTVYMELSSLRSEDTAVYYCARGVYYYDYWGQGTLVTVSS
VL: DIQMTQSPSSLSASVGDRVTITCRASQGIRTNLAWFQQKPGKAPKSLIYAASSLQSGVPSRFSGSGSGTDFTLTISSLQPEDFATYYCQQYANYPRTFGGGTKVEIK

Each binder was assayed against T1, cynomolgus monkey C-KIT-Fc protein (cynomolgus monkey) (assay: HTRF competition vs terbium-labelled h37M IgG1).
T1 construct: also called cyno C-KIT-Fc; cyno C-KIT

| Binder | IC50 [µg/mL] |
| --- | --- |
| B1 | 0.051 |
| B2 | 0.079 |
| B3 | 0.081 |
| B4 | 0.036 |
| B5 | 0.121 |
| B6 | 0.059 |
| B7 | 0.101 |
| B8 | 0.166 |
| B9 | 0.097 |

The binders below were run against T1, cynomolgus monkey C-KIT-Fc protein (assay: direct ELISA, IgG at 1 µg/ml).

| Binder | OD450 nm [OD450 nm] |
| --- | --- |
| B1 | > 2 |
| B10 | > 2 |
| B4 | > 2 |
| B11 | > 2 |
| B12 | > 2 |

Molecular target: T1, cynomolgus monkey C-KIT-Fc protein
Assay: HTRF competition vs terbium-labelled h37M IgG1
Remark: another data set of the same source

| Binder | IC50 [µg/mL] |
| --- | --- |
| B10 | 0.164 |
| B13 | 0.532 |
| B4 | 0.058 |
| B14 | 0.633 |
| B15 | 0.785 |
| B16 | 2.74 |
| B17 | 3.26 |
| B18 | 0.254 |

The binders below were run against cynomolgus C-KIT on stably transfected CHO-K1 cells (cynomolgus monkey) (assay: cell-based or functional assay).

| Binder | Cyno C-KIT CHO FabZAP IC50 (pM) |
| --- | --- |
| B19 | 14 |
| B20 | 13.5 |
